Measured values from patent publication CN113956355A.

Tests used:
人脑利钠肽(BNP) (human) [1] = molecular target: 人脑利钠肽(BNP) (human) (UniProt P16860); assay: sandwich ELISA kit, 5G8 coated at 5 μg/ml, HRP-5D11 detection; synthetic BNP standard 250 pg/ml
人脑利钠肽(BNP) (human) [2] = molecular target: 人脑利钠肽(BNP) (human) (UniProt P16860); assay: sandwich ELISA kit, 5G8 coated at 5 μg/ml, HRP-5D11 detection; 0 pg/ml BNP (blank)
人脑利钠肽(BNP) (human) [3] = molecular target: 人脑利钠肽(BNP) (human) (UniProt P16860); assay: sandwich ELISA kit, 5G8 coated at 5 μg/ml, HRP-5D11 detection; synthetic BNP standard 62.5 pg/ml
人脑利钠肽(BNP) (human) [4] = molecular target: 人脑利钠肽(BNP) (human) (UniProt P16860); assay: sandwich ELISA kit, 5G8 coated at 5 μg/ml, HRP-5D11 detection; synthetic BNP standard 15.625 pg/ml
人脑利钠肽(BNP) (human) [5] = molecular target: 人脑利钠肽(BNP) (human) (UniProt P16860); assay: sandwich ELISA, 5G8 coated, HRP-5D11 detection; plasma sample with BNP 287 pg/ml
人脑利钠肽(BNP) (human) [6] = molecular target: 人脑利钠肽(BNP) (human) (UniProt P16860); assay: sandwich ELISA, 5G8 coated, HRP-5D11 detection; plasma sample with BNP 108 pg/ml
人脑利钠肽(BNP) (human) [7] = molecular target: 人脑利钠肽(BNP) (human) (UniProt P16860); assay: sandwich ELISA, 5G8 coated, HRP-5D11 detection; plasma sample with BNP 3287.3 pg/ml
人脑利钠肽(BNP) (human) [8] = molecular target: 人脑利钠肽(BNP) (human) (UniProt P16860); assay: sandwich ELISA kit, 5G8 coated at 5 μg/ml, HRP-5D11 detection; synthetic BNP standard 31.25 pg/ml
人脑利钠肽(BNP) (human) [9] = molecular target: 人脑利钠肽(BNP) (human) (UniProt P16860); assay: sandwich ELISA kit, 5G8 coated at 5 μg/ml, HRP-5D11 detection; synthetic BNP standard 3.90625 pg/ml
人脑利钠肽(BNP) (human) [10] = molecular target: 人脑利钠肽(BNP) (human) (UniProt P16860); assay: sandwich ELISA kit, 5G8 coated at 5 μg/ml, HRP-5D11 detection; synthetic BNP standard 7.8125 pg/ml
人脑利钠肽(BNP) (human) [11] = molecular target: 人脑利钠肽(BNP) (human) (UniProt P16860); assay: sandwich ELISA, 5G8 coated, HRP-5D11 detection; plasma sample with BNP 425.6 pg/ml
人脑利钠肽(BNP) (human) [12] = molecular target: 人脑利钠肽(BNP) (human) (UniProt P16860); assay: sandwich ELISA, 5G8 coated, HRP-5D11 detection; plasma sample with BNP 1125.7 pg/ml
人脑利钠肽(BNP) (human) [13] = molecular target: 人脑利钠肽(BNP) (human) (UniProt P16860); assay: sandwich ELISA kit, 5G8 coated at 5 μg/ml, HRP-5D11 detection; synthetic BNP standard 125 pg/ml
人脑利钠肽(BNP) (human) [14] = molecular target: 人脑利钠肽(BNP) (human) (UniProt P16860); assay: sandwich ELISA, 5G8 coated, HRP-5D11 detection; 0 pg/ml BNP (blank)
人脑利钠肽(BNP) (human) [15] = molecular target: 人脑利钠肽(BNP) (human) (UniProt P16860); assay: indirect ELISA, BNP coated at 2 μg/ml, purified antibody diluted 10^4-fold; mean value
人脑利钠肽(BNP) (human) [16] = molecular target: 人脑利钠肽(BNP) (human) (UniProt P16860); assay: sandwich ELISA, 5G8 coated, HRP-5D11 detection; plasma sample with BNP 2046.3 pg/ml
人脑利钠肽(BNP) (human) [17] = molecular target: 人脑利钠肽(BNP) (human) (UniProt P16860); assay: indirect ELISA, serial two-fold dilution of the antibody; coated antigen taken as BNP
人脑利钠肽(BNP) (human) [18] = molecular target: 人脑利钠肽(BNP) (human) (UniProt P16860); assay: sandwich ELISA, 5G8 coated, HRP-5D11 detection; plasma sample with BNP 39.7 pg/ml

Chain of UniProt P16860 (P16860 103-134): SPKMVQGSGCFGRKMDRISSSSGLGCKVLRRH

| OD450nm (人脑利钠肽(BNP) (human) [1]) | OD450nm (人脑利钠肽(BNP) (human) [2]) | OD450nm (人脑利钠肽(BNP) (human) [3]) | OD450nm (人脑利钠肽(BNP) (human) [4]) | OD450nm (人脑利钠肽(BNP) (human) [5]) | OD450nm (人脑利钠肽(BNP) (human) [6]) | OD450nm (人脑利钠肽(BNP) (human) [7]) | OD450nm (人脑利钠肽(BNP) (human) [8]) | OD450nm (人脑利钠肽(BNP) (human) [9]) | OD450nm (人脑利钠肽(BNP) (human) [10]) | OD450nm (人脑利钠肽(BNP) (human) [11]) | OD450nm (人脑利钠肽(BNP) (human) [12]) | OD450nm (人脑利钠肽(BNP) (human) [13]) | OD450nm (人脑利钠肽(BNP) (human) [14]) | OD450 (人脑利钠肽(BNP) (human) [15]) | OD450nm (人脑利钠肽(BNP) (human) [16]) | 效价 (ELISA titer) (人脑利钠肽(BNP) (human) [17]) | OD450nm (人脑利钠肽(BNP) (human) [18]) | Binder |
| --- | --- | --- | --- | --- | --- | --- | --- | --- | --- | --- | --- | --- | --- | --- | --- | --- | --- | --- |
| 2 OD450nm | 0.01 OD450nm | 0.529 OD450nm | 0.086 OD450nm | 1.37 OD450nm | 0.951 OD450nm | 3.6 OD450nm | 0.224 OD450nm | 0.024 OD450nm | 0.033 OD450nm | 1.74 OD450nm | 2.8 OD450nm | 1.11 OD450nm | 0.026 OD450nm | 2.85 OD450 | 3.48 OD450nm | 6.6e+06 | 0.273 OD450nm | 兔单克隆抗体OTIR5G8 (antibody, V domains shown) VH: QSLEESGGRLVTPGTPLTLTCTASGFSLISYDMSWVRQAPGKGLEWIGFLGSGSSAYYASWAKGRFTISRTSTTVDLKITSPTTEDTATYFCARGTGWGQGTLVTVSS VL: AQVLTQTPSSVSAAVGGTVTINCQASQSVYKNNWLSWFQQKPGQPLKRLTYRASTLDSGVPSRFSGSGSGTEFTLTISDVQCDDAATYYCLGSYDCSSADFGGGTEMVVK |
|  |  |  |  |  |  |  |  |  |  |  |  |  |  | 2.85 OD450 |  | 1.3e+07 |  | 兔单克隆抗体OTIR5D11 (antibody, V domains shown) VH: QSVEESGGRLVTPGTPLTLTCTVSGFSLSSYAMNWVRQAPGKGLEWIGYIDSSGTIYYASWAKGRFTISKTSTTVDLKITSPTTEDTATYFCARGMNWGQGTLVTVS VL: AAVLTQTPSPVSAAVGGTVTISCQSSQSVYDNNALAWYQQKPGQPPKRLIYKASTLDSGVPSRFSGSGSGTQFTLTISGVQCDDAATYYCLGEYYDDAEFGGGTEVVVK |
